Laboratory results taken from the nanobody polyreactivity screen of Harvey et al. (2022).

assay: yeast display, Sf9 membrane polyspecificity reagent, FACS + sequencing; frameworks hold sequencing errors
Method in brief: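 Galactose-induced (36–48 hours) yeast carrying a synthetic nanobody display library were exposed to 10% biotinylated, detergent-solubilized Sf9 membrane reagent at 4 °C for 1 hour. FACS followed streptavidin microbead enrichment, using low and high (top ~1%) gates for expression (anti-HA) and reagent binding (streptavidin). Colony PCR, MiSeq 2 × 250 sequencing and CDR-length filtering followed. Labels for polyreactivity reflect the gate of origin.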

Row | Sequence | polyreactivity (PSR sort gate)
1 | QVQRVESGGGLVQAGGSLRLSCAASGRIFRGNAMGWYRQAPGKERELVAAITSSGDSTFYADSVKGRFTISRDNANNTVYLQMNSLKPEDTAVYYCNALVQGKEYYWGQGTQVTVSS | high polyreactivity
2 | QVQLVESGGGLVQAGGSLRLSCAASGFIFLPYFMAWYRQAHGKERELVAAISGVGGITYYADSVKGRFTISRDNAKNTVYLQMNSLKPEDTAVYYCAAESSYFVALNQFYTVEFYYWGQGTQVTVSS | low polyreactivity
3 | QVQLVESGGGLVQAGGSLRLSCAASGRTCYYTMGWYRPAPGKDRELVAAITWSVDSTYYADSVKGRFTISRDNAKNTVYLHMNSLKPEVTAVYYCAVQPPPLNGLYDYWGQGTQVTVSS | low polyreactivity
4 | QVQLVESGGGLVQAGGSLRLSCAASGSIFSYYAMGWYRQAPGKERELVAAITSGGSTYYSDSVKGRFTISRDNAKNTVYLQMNSLKPEDTAVYYCAREKWPSQYDYWGQGTQVTVSS | low polyreactivity
5 | QVQLVESGGGLVQAGGSLRLSCAASGRTFRFYAMGCYRQAPGKERELVAAINYGGGNTYYADSVKGRFTISRDNAKNTVYLQMNILKPEDTAVYYCAAQYYYRARWFPYDYWGQGTQVTVSS | high polyreactivity
6 | KVQLVETGRGLVQAGGSLRISCAASGSTFGANAMVWYIQAPGKERELVAAITVRGGSTYYADSVKCRFTISRDNAKNNVYLQMISLKPEETAVYYCAARWACSTNSYYYWGQGTQVTVSS | high polyreactivity
7 | QVQLVESGGGLVQARGSLRLSCAASGSTFEHNAMGWYRQGPGKERELVAAISYSGGRTYYADSVKGRFTISRDNAKNTVYLQMNSLKTEDTAVYYCAAPYYSWPYYYWGLGTQVTVSS | high polyreactivity
8 | QVQLVESGGGLVQAGGSLRLSCAASGSILSWYAMGWYRQAPGKERELVAAITGSGGTTYADSVKWRFTISRDNAKNTVYLQMNSLKPEDTAVYYCAADYLGIYDYWGQGTQVTVSS | high polyreactivity
9 | QVQLVESGGGFVQAGGSLRLICAASGSIDYNAMGWYRQAPGKERELVAAITQRGGRTYYADSVKGRFTISRDNAKNTVYLQMNSLKPEDTAVYYCNTKGNYGLGYKNYYWGQGTQVTVSS | high polyreactivity
10 | QVQLVESGGVLVQAGGSLRLSCAASGGTFGVYTMGWYRQSPGKERDLVAAISWSGGSTYYADSVKGRFRISRDNAKNTVYLQINSLKPEDTAVYYCAARLKYGRIGVDHWGQGTQVTVSS | high polyreactivity
11 | QVHLVESGGGLVQAGGSLRLSCAASGRIFGLYAMGWYRQAPGKERELVASISYNGGSTYYADSVKGRFTISRDNAKNTVYLQMNSLKPEDTAVYYCAASLYYYGVRFGYWGQGTQVTVSS | high polyreactivity
12 | QVQLVESGGGLVQAGGSLRLTCAASGSIFRTNTMGWYRQAPGKVRELVAAITAIGDSTYYADSVKGRFTISRDNANNTVYLQMNSLKPEDTAVYYCAAEKVSWGYHFYSSYDYWGQGTQVTVSS | low polyreactivity
13 | QDQLVESGGGLVQAGGSLRLSCAASGSIFSKNTMGWYRQAPGKERELVAAISGSGVSTYYADSVKGRFTISRDNAKNTVYLQMNSLKPEDTAVYYCAAGPRFRYYSGWYDYWGQGTQVTVSS | high polyreactivity
14 | QVQLVESGGGLVQAGGSLRLSCAASGRTFAGYAMGWYRQAPGKERELVAGITTSGGITYYADSVKGRFTISRDNAKNTVYLQMNSLKPEDTAVYYCNTGYYGRLRDDYWGQGTQVTVSS | high polyreactivity
15 | QVQHVESGGGLVQAGGSLRLSCAASGFTFYRYTMGWYRQAPGKERELVAAISRGGRTYYADSVKGRFTISRDNAKNTVYLQMNSLKPEDTAVYYCAARTWIARRGRYNYWGQGTQVTVSS | high polyreactivity
16 | QVQIVESGGGLVQAGGSRRFSCAASGGTFNWNAMGWYRQAPGKERELFAAINRTGGSTYYADSVKARFTISRDNAMNTVYLQMNSLKPEDTAVYYCAKRYYRFYLGWPPEDSWGQGTQVSVSS | low polyreactivity
17 | QVQLVESGGRLVQAGGSLRLSCAASGLTFGRYAMGWYSQAPGKERELVASISQRGGSSYYADSVKGRFTISRDNAKNTVFLQMNSLKPEDTAVYYCNARVRDIYRYSMDSWGQGTQVTVSS | low polyreactivity
18 | QVQLVESGGGLVQAGGSLRLSCAASGRIFWGYTMGWYRQAPGKERELVAAITFRGATTYYADSVKGRFTISRDNAKNTVYLQLNSLKPEDTAVYYCAKRGYASGSKWDYGYWGQGTQVTVSS | high polyreactivity
19 | QVQLVESGGGLVQAGGSLRLSCAASGRTFRLYAMGWYRQAHGKERELVARISRGGSTYYADSVKGRFTISRDNAKNTVYLQMNSLKPEDTAVYYCAAVAYALGFASKEDYWGQGTQVTVSS | high polyreactivity
20 | QVQLVESGGGLVQAGGSLRLICAASGTTFPRYAMGWYRKAPGKERELVAAITRSGANTHYADSVKGRFTIPRDNAKNTVYLQMTSLKPEDTAVYYCAARIYWGYGTRYYYWGQGTQVTVSS | high polyreactivity
21 | QVQLVESGGGLVQAGGSLRLSCAASGSIFTDYALAWYRQAPGKERELVATITWSDATTYYTDSVKGRFTISRDNAKNTVYLQMNSLKPEDTAVYYCARRSRYSKGYDYWGQGTQVTVSS | low polyreactivity
22 | QVQLVESGGGLVQAGGSLRLSCAASGRTFRSNAMGWYRQAPGKERELVAVITRSGGSTDYADSVKGRFTISRDNAKNTVYLQMNSLKPEDTAVYYCAVRRYDYWGQVTQVTVSS | high polyreactivity

Row | Sequence | polyreactivity (PSR sort gate)
23 | QVQLVESGGGLVQAGGSLRLSCAASGYIFKSNVMGWYRQAPGKERELVAAISWSGGRTYYADSVKGRFTISRDNAKNTVYFQRNSLKPEDTAVYYCAAVGRQSNYYVDYDYWGQGTQVTVSS | high polyreactivity
24 | QVQLVESGGGLVQAGGSLRLSCAASGFTISPYAMGWYRQAPGKERELVAAITRRSGSTYDADSVKGRFTISRDNAKNTVYLQMNSLKPEDTAVYYCNAKFYTAVYSYSLFNYWGQGTQVTVSS | high polyreactivity
25 | QVQLEESCGGLVQAGGSHRLICAASGPTIRYNGIGWYRQAPRKEREFLAAISWSGGSTYYADSVKGRFTISRDYAKNTVYLQMNSLKPEDTAVYYCNVDFHWQRFHHISADYDYWGLGTQVTVSS | high polyreactivity
26 | QVQLVESGGGLVQAGGSLRLSCAASGRTFVYNAMGWYRQEPGKERELVAAITWNGGSKYYADSVKGRFTISRDNAKITVYLQMNSLKPEDTAVYYCNRDVRYVGPSGFDYWGQGTQVTVSS | high polyreactivity
27 | QVQLVESGGGLVQAGGSLRLSCAASGIIFTFNAMGWYRQAPGKERELVASISITGDTYYADSVKGRFTISRDNAKNTVYLQMNSLKPEDTAVYYCAAEYYFYSRHWYISYDYWGQGTQVTVSS | low polyreactivity
28 | QVQLEESGGGLVQAGGSLRLSCAASGRTFTHYAMGWYRQAPGRERELVAGITRSGGITYYADSVKGRFTISRDNANNTVYLQMNSLKPEDTAVYYCNAGFHGLAYFLKPEYDYWGQGTQVTVSS | low polyreactivity
29 | QVQLVESGGGLVQAGGSLRLSCAASGRTFLVYAMGWYRQAPGKERELVATIRASTGSTYADSVKGRFTISRDNAKNTVYLQMNSLKPEDTAVYYCNAVHYFLYGYYSWGQGTQVTVSS | high polyreactivity
30 | QVKLVESGGGLVQAGGSLRLSCAASGSIFSRNTIGCDRQEPGKERELVAGISSSGSRTYYADSVKGRFTISRDNAKNTVYLQMNSLIPEDTAVYYCAAEHQRSRGRRYYIGYDYWGQGTQVTVSS | low polyreactivity
31 | QVQLVESGGGLVQAGGSLRLICAASGFIFVDNAMGWYRQAPGKERELVAAITSGASTYYADSVKGRFTISRDNAKITVYLQMNSLKPEDTAVYYCAADYLYYYTWYNYWGQGTQVTVSS | low polyreactivity
32 | QVQLVESAAGLVQAGGSLSLSCAASGSILQSYAMGWYRQAPGKERELVAAISGSGGSTYYADSVKGRFTISRDNAKNTVYLQMNSLKPEDTAVYYCAKGPRYRTSRGEFGYWGQGTQVTLSS | low polyreactivity
33 | QVQLVESGGGLVQAGGSLRLSCAASGRIYGNAMGWYRQAPGKERELVAAISWSGGSTYYADSVKGRFTISRDNAKNTVYLQMNSLKPEDTAVYYCAATYPQGKYTYGRSYDYWGQGTQVTVSS | high polyreactivity
34 | QVQLVESGGGLVQAGGSLRLSCAASGNTFTVNAMGWYRQAPGKERELVAAINYSGGSTYYADSVKGRFTISRDNAKNTVYLQMNSLKPEDTAVYYCAASPDELLYEMYYWGQGTQVTVSS | low polyreactivity
35 | QVQLVESGGGLVQAGGSLRLSCAASGSTFFRNAMGWYRQAPGKERELVAAITWSGGSTYYADSVKGRFTISRDNAKNTVYLQMNSLKPEDTAVYYCAAGLSYWTPHYYPFDYWGQGTQVTVSS | low polyreactivity
36 | QVQLVESGGGLVQAGGSLRLSCADSGRIFAWYAMGWYRQAPGKERELVAVITSSDGSTHYADSVKGRFTISRDNAKNTVYLQMNSLKPEDTAVYYCNADSQRPRRRSNYWGQGTQVTVSS | low polyreactivity
37 | HVQLVESGGGLVQAGGSLRLSCAASGLTFSRYTMGWYRQAPGKERELVAAISRSGASTYYADSVKGRFTISRDNAKNTVYLQMNSLKPEDTAVYYCAKTSTSYGSLRKVTPYPLDYWGQGTQVTVSS | high polyreactivity
38 | QVQLVESGGGLVQAGGSLRLSCAASGLIFIVNAMGWYRQAPGKDRELVAAISSGGSTNYADSVKGRFTISRDNAKNTVYLQMNSLKPEDTAVYYCNAGRGPITQNVGSLAYRSDYWGQGTQVTVSS | low polyreactivity
39 | QVQLVESGGGLVQAGGSLRLSCAASGITFRRYTMGWYIQAPGKERELVATISLSDGNTYYADSVKGRFTISRDNAKNTVYLQMNSLKPEDTAVYYCNARHTWHQTYDYWGQGTQVTVSS | low polyreactivity
40 | QVQLVESGGGLVQAGGSLRLSCAASGRILARYAMGWYRQAPGKERELVASISRRGGSTYYADSVKGRFTISRDNAKNTVYLQMNSLKPEDTAVYYCNARGPVSSGYDYWGQGTQVTVSS | high polyreactivity
41 | QVQLVESGGGLVQAGGSLRLSCAASGSTFSRYAMGWYRQAPGKDRELVAAINRSGGSTYYADSVKGRFTISRDNAKNTVYLQMNSLKPEDTAVYYCNKYTGYLHDYWGQGTQVTVSS | high polyreactivity
42 | QVQLVESGGGLVQAGGSLRLSCAASGRTFFTYAMGWYRQAPGKERELVASITSSGVSTYYADSVKGRFTISRDNAKNTVYLQINRLKPEDTAVYHCNTRYPYYWPIYGYWGQGTQVTVSS | high polyreactivity
43 | QVQLVESGGGLVQAGGSLRLSCDASARTFYRNTMGWYRQAPGKERELVAAITRSGGSTYYADSVKGRFTISRDNAKNTVYLQINRLKPEDTAVYYCAASRTYYAPYGYWGQGTQVTVSS | high polyreactivity
